Laboratory results published in patent publication US20070196883A1, “ENZYME” (UNIVERSITY OF DUNDEE, priority 1999, published 2007).
Read-outs that look alike come from different tables or passages of the source. Blank lines part the entries; values can stand above or below the substance they belong to. Ends that are not written are not given here.

Experiments:
endogenous PDK1 = target: T1, endogenous PDK1 (Homo sapiens, UniProt O15530); test: Association of endogenous PDK1 with GST-PIF proteins purified from 293 cells; assay type: binding; settings: expressed in 293 cells, glutathione-Sepharose purified; PDK1 immunoblot and activity
T1 construct: endogenous in cells; host or cells: 293 cells
T1 sequence (O15530 1-556): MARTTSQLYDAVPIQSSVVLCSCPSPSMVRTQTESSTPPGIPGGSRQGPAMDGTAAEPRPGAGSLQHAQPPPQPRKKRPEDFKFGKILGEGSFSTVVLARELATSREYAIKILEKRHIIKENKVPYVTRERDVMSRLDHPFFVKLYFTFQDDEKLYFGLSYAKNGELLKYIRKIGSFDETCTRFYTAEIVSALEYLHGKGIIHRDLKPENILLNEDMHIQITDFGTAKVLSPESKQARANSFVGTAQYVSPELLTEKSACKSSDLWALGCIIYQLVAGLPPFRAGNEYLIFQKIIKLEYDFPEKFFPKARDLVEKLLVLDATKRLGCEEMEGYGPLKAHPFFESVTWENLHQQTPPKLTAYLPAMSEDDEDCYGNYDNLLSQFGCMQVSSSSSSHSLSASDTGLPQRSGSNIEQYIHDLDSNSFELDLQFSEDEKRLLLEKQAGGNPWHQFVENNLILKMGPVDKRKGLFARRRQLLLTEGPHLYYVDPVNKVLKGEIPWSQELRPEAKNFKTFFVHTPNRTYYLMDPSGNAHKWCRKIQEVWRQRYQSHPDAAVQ
Description: FIG. 3. Mapping the residues on PIF that are required for the interaction with PDK1. (A) 293 cells were transiently transfected with DNA constructs expressing either the wild type GST-PIF or the indicated point mutations of this protein. The cells were lysed and the GST fusion proteins purified by affinity chromatography on glutathione-Sepharose beads. Each GST-fusion protein was incubated for 30 min at 30° C. with GST-S473D-PKBα and MgATP in the presence or absence of phospholipid vesicles containing 100 μM PtdCho, 100 μM PtdSer, 10 μM sn-1-stearoyl-2-arachidonoyl-D-PtdIns(3,4,5)P3, and the increase in specific activity of GST-S473D-PKBα was determined relative to a control incubation in which the GST fusion protein was omitted. The basal activity of GST-S473D-PKBα was 3.5 U/mg. 2 μg of each protein was electrophoresed on a 10% SDS/polyacrylamide gel and either immunoblotted using a PDK1 antibody raised against whole protein to detect any endogenous PDK1, or stained with Coomassie blue to establish the level of expression of the GST-PIF protein. Similar results were obtained in 5 separate experiments using 2 or more preparations of the wild type and mutant GST-PIF proteins. (B) Yeast harbouring the pAS2-1 wild type PDK1 vector (“PDK1-Vector”) or the empty pAS2-1 vector (“Vector”) were transformed with pGAD10 plasmid coding for the expression of the wild type PIF or the indicated mutants of PIF. The resulting yeast strain was grown on SD-Leu-Trp-Ura-His+3-AT medium which only permits growth of yeast constructs in which GST-PIF and PDK1 are capable of interacting.
Expression of GST-fusion proteins in 293 cells. Up to twenty 10 cm diameter dishes of 293 cells were cultured and each dish transfected with 20 μg of pEBG2T DNA encoding the desired GST-fusion protein using a modified calcium phosphate method. In experiments described in FIG. 1 in which Myc-PDK1 constructs (pCMV5 vector) were coexpressed with GST-PIF (pEBG2T vector) or GST alone (empty pEBG2T vector) 10 μg of each construct was used. […]

PDK1 [1] = target: T2, PDK1 (Homo sapiens, UniProt O15530); test: Yeast two hybrid interaction of PIF with PDK1; assay type: binding
T2 construct: expressed in transfected cells; host or cells: yeast strain Y166
T2 sequence (O15530 1-556): T1 sequence (O15530 1-556)
Text: (§1) FIG. 1. Two hybrid interaction of PIF with the kinase domain of PDK1. Yeast were transformed with a pGAD10 plasmid (LEU2) harbouring the C-terminal 77 amino acids of PRK2 (termed PIF) in the presence of either a pAS2-1 plasmid (TRP1) coding for the expression of the wild type PDK1, the kinase domain of PDK1 (residues 1 to 404) or the PH domain of PDK1 (residues 428 to 556) or the empty pAS2-1 vector as a control (denoted by—(A). The position on the plate of each yeast strain is indicated in (A). In (B) the yeast are grown on SD-Leu and Trp deficient media in which all the strains of yeast are capable of growing independently of whether PIF is interacting with PDK1. An interaction between PIF and PDK1 leads to the expression of reporter genes coding for URA3 and HIS1 that will enable growth on SD-Leu-Trp-Ura-His+3-AT medium (C) as well as the induction of β-galactosidase gene expression (D). Alignment of the amino acid sequence of the C-terminal 77 amino acids of PRK2 with the equivalent region of AGC subfamily kinases indicated (E). Identical residues are denoted by white-on-black letters, and similar residues by grey boxes. PRK2 (SEQ ID NO:14; PRK1 (SEQ ID NO:15); PKBα (SEQ ID NO:16); P70S6k (SEQ ID NO:17); SGK (SEQ ID NO:18); PKCζ (SEQ ID NO:19); PKCα (SEQ ID NO:20); PKCβ (SEQ ID NO:21).
(§2) Myc-tagged human PDK1, kinase domain of PDK1 (residues 1-404) and the PH domain of PDK1 (428 to 556) were subcloned into the EcoRI/SalI of the yeast pAS2-1 vector. A yeast two hybrid screen was carried out using a human skeletal muscle library subcloned into the pGAD10 vector (Clontech) transformed into the yeast strain Y166. 4×10^6 yeast cells were transformed with pGAD10 library constructs and PDK1 constructs in the pAS2-1 vector. […] In this system interacting clones from the library are able to grow in medium lacking histidine and uracil and express β-galactosidase which was detected using the Clontech protocol. pGAD10 plasmids from interacting clones were isolated transferred to E. coli, and sequenced. […]

PDK1 [2] = target: T3, PDK1 (Homo sapiens, UniProt O15530); test: Yeast two hybrid interaction of PIF with PDK1; assay type: binding; remark: listed apart in the source
T3 construct: expressed in transfected cells; host or cells: yeast strain Y166
T3 sequence (O15530 428-556): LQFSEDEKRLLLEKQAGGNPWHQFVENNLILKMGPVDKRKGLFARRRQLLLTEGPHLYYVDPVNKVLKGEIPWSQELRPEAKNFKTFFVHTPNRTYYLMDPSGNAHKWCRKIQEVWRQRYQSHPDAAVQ
Text: as §1, §2

PDK1 [3] = target: T4, PDK1 (Homo sapiens, UniProt O15530); test: Yeast two hybrid interaction of PIF with PDK1; assay type: binding; remark: listed apart in the source
T4 construct: expressed in transfected cells; host or cells: yeast strain Y166
T4 sequence (O15530 1-404): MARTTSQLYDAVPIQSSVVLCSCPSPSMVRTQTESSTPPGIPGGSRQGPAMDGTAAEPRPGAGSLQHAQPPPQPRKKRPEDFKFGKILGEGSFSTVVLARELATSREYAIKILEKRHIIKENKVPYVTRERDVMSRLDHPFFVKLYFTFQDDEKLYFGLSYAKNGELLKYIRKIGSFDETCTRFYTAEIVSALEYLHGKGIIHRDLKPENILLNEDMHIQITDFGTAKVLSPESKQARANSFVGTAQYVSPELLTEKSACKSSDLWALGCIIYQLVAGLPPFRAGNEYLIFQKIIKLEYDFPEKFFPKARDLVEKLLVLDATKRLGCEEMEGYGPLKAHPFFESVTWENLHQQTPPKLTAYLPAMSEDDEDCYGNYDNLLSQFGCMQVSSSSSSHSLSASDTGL
Text: as §1, §2

PDK1 [4] = test: Activation of GST-ΔPH-PKBα by PDK1 with or without PIF and phosphoinositide; assay type: biochemical; settings: absence of PtdIns(3,4,5)P3
Description: FIG. 8. Maximal activation of PKB by PDK1/PIF requires PtdIns(3,4,5)P3 to interact with both PKB and PDK1. […] The basal activity of GST-ΔPH-PKBα was 3.0 U/mg.
Measurement of PKBα activation after incubation with GST-PIF. This assay was carried out in 2 stages, as described previously; briefly, in the first, GST-PKBα was incubated with GST-PIF (or other indicated PDK1 proteins in the presence or absence of peptides) in the presence of MgATP and phospholipid vesicles.
In Stage 1, an 15 μl reaction mixture was set up containing 66.5 mM Tris/HCl pH 7.5, 0.13 mM EGTA, 0.13% (by vol) 2-mercaptoethanol, 3.3 μM PKI, 1.3 μM microcystin-LR, 13.3 mM Mg(Ac)2, 133 μM unlabelled ATP, 0.4 μM GST-PKBA, 133 μM PtdSer, 133 μM PtdCho in the presence or absence of 13.3 μM PtdIns(3,4,5)P3. The assay was initiated by the addition of 5 μl of 0.2 mg/ml GST-PIF (or other indicated proteins or peptides), after incubation for 30 min at 30° C., stage 2 of the assay was initiated by the addition of 30 μl of a mixture made up of Buffer B containing 2.5 μM PKI, 1 μM microcystin-LR, 10 mM Mg(Ac)2, 100 μM [γ^32P]ATP (200-400 cpm/pmol), 100 μM of the peptide RPRTAAF (SEQ ID NO:13) and 1.25% (by vol) Triton X-100. After 10 min at 30° C., the reactions were terminated by spotting the reaction mixture on to P81 phosphocellulose paper. The papers were washed in 75 mM phosphoric acid and analysed as described previously. A control reaction in which GST-PKBα was omitted was taken as the blank and was always less than 5% of the activity measured in the presence of GST-PKBα. The basal GST-PKBα activity is the activity measured in the absence of PDK1. 1 Unit of GST-PKBα activity was that amount of enzyme required to catalyse the phosphorylation of 1 nmol of the peptide RPRTAAF (SEQ ID NO:13) in 1 min. The assays were linear with time up to a final concentration of 3 U/ml of PDK1 activity in the assay.

His-PDK1 = target: T5, His-PDK1 (Homo sapiens, UniProt O15530); test: Surface Plasmon Resonance (BiaCore) binding of His-PDK1 to GST-PIF / Region B peptide
T5 construct: made in house; host or cells: Sf21 insect cells (baculovirus, pFASTBAC HTb)
T5 sequence (O15530 1-556): T1 sequence (O15530 1-556)
Description: FIG. 12. Quantitative analysis of the binding of PDK1 to PIF. Surface Plasmon Resonance measurements were carried out on a BiaCore instrument as described in the methods section. […] The responses at steady state binding were recorded. […] All data are single determinations from a representative experiment that was repeated at least 3 times with similar results.
BiaCore measurements. GST-PIF was coupled through amine groups to the Sensor Chip CM5 according to the manufacturer's instructions. […] The 24 residue peptide overlapping Region B was biotinylated through its C-terminal Cys and bound to Avidin coated Sensor Chip SA. […] The decrease in steady state binding was used to determine the Kd of interaction between PDK1 and the peptide, according to the […] relationship. The measure of response in our experiments is termed RU; 1000 RU=1 ng/mm^2 of protein bound to the surface.

two hybrid interaction with full length PDK1 (PDK1 [1]): positive interaction | two hybrid interaction with the PH domain of PDK1 (PDK1 [2]): not | two hybrid interaction with the isolated kinase domain of PDK1 (PDK1 [3]): positive interaction
Substance: PIF: C-terminal 77 amino acids of PRK2
inhibition of the catalytic activity of PDK1 (PDK1 [4]): ~2 fold

Kd (His-PDK1; His-PDK1 0.5 μM mixed with free peptide, injected over immobilised peptide, read-out: Kd from competition by addition of free peptide): 1500 nM | Kd (His-PDK1; immobilised and biotinylated 24 residue peptide, His-PDK1 injected, read-out: Kd): 800 nM
Substance: REPRILSEEEQEMFRDFDYIADWC [Region B peptide]

association of endogenous PDK1 with GST-PIF protein (endogenous PDK1): completely abolished
Substance: Y979: GST-PIF mutant, Y979 mutated to Ala [Lipid Y979]

Second part, the substance before the results:

Substance: F974: GST-PIF mutant, F974 mutated to Ala [Lipid F974]
association of endogenous PDK1 with GST-PIF protein (endogenous PDK1): completely abolished

Substance: F977: GST-PIF mutant, F977 mutated to Ala [Lipid F977]
association of endogenous PDK1 with GST-PIF protein (endogenous PDK1): completely abolished
